# Target: KIX domain of human CBP (residues 586–672) (human, UniProt Q92793 586-672)
# Assay: ITC
# KIX domain of human CBP (residues 586–672), sequence (Q92793 586-672): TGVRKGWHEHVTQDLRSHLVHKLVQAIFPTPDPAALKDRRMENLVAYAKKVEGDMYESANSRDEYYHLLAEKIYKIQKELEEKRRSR
Kd,dH,Binder
500 ± 30 nM,-10.5 ± 0.4 kcal/mol,"human WT c-Myb TAD (residues 275–327) (domain or fragment, UniProt P10242 275-327, looked up) PAAAAIQRHYNDEDPEKEKRIKELELLLMSTENELKGQQVLPTQNHTCSYPGW"
870 ± 50 nM,-13.8 ± 0.48 kcal/mol,"c-Myb TAD K296H (domain or fragment, human, UniProt P10242 275-327, looked up) PAAAAIQRHYNDEDPEKEKRIHELELLLMSTENELKGQQVLPTQNHTCSYPGW"
2240 ± 20 nM,-11.33 ± 0.04 kcal/mol,"c-Myb TAD L300G (domain or fragment, human, UniProt P10242 275-327, looked up) PAAAAIQRHYNDEDPEKEKRIKELEGLLMSTENELKGQQVLPTQNHTCSYPGW"
620 ± 20 nM,-10.2 ± 0.27 kcal/mol,"c-Myb TAD P289A (domain or fragment, human, UniProt P10242 275-327, looked up) PAAAAIQRHYNDEDAEKEKRIKELELLLMSTENELKGQQVLPTQNHTCSYPGW"
410 ± 70 nM,-8.29 ± 0.6 kcal/mol,"c-Myb TAD N307A (domain or fragment, human, UniProt P10242 275-327, looked up) PAAAAIQRHYNDEDPEKEKRIKELELLLMSTEAELKGQQVLPTQNHTCSYPGW"
780 ± 60 nM,-11.1 ± 2.1 kcal/mol,"c-Myb TAD K293H (domain or fragment, human, UniProt P10242 275-327, looked up) PAAAAIQRHYNDEDPEKEHRIKELELLLMSTENELKGQQVLPTQNHTCSYPGW"
1490 ± 290 nM,-8.39 ± 0.93 kcal/mol,"c-Myb TAD S304V (domain or fragment, human, UniProt P10242 275-327, looked up) PAAAAIQRHYNDEDPEKEKRIKELELLLMVTENELKGQQVLPTQNHTCSYPGW"
390 nM,-8.44 ± 0.04 kcal/mol,"c-Myb TAD N307V (domain or fragment, human, UniProt P10242 275-327, looked up) PAAAAIQRHYNDEDPEKEKRIKELELLLMSTEVELKGQQVLPTQNHTCSYPGW"
610 ± 40 nM,-9.26 ± 0.23 kcal/mol,"c-Myb TAD N307G (domain or fragment, human, UniProt P10242 275-327, looked up) PAAAAIQRHYNDEDPEKEKRIKELELLLMSTEGELKGQQVLPTQNHTCSYPGW"
380 ± 40 nM,-6.94 ± 0.51 kcal/mol,"c-Myb TAD S304A (domain or fragment, human, UniProt P10242 275-327, looked up) PAAAAIQRHYNDEDPEKEKRIKELELLLMATENELKGQQVLPTQNHTCSYPGW"
710 ± 130 nM,-13.3 ± 2.69 kcal/mol,"c-Myb TAD S304G (domain or fragment, human, UniProt P10242 275-327, looked up) PAAAAIQRHYNDEDPEKEKRIKELELLLMGTENELKGQQVLPTQNHTCSYPGW"
950 ± 70 nM,-8.97 ± 0.32 kcal/mol,"c-Myb TAD N307P (domain or fragment, human, UniProt P10242 275-327, looked up) PAAAAIQRHYNDEDPEKEKRIKELELLLMSTEPELKGQQVLPTQNHTCSYPGW"
530 ± 20 nM,-9.81 ± 0.1 kcal/mol,"c-Myb TAD P289A/P316A (domain or fragment, human, UniProt P10242 275-327, looked up) PAAAAIQRHYNDEDAEKEKRIKELELLLMSTENELKGQQVLATQNHTCSYPGW"
460 ± 30 nM,-10.1 ± 0.26 kcal/mol,"c-Myb TAD G311A (domain or fragment, human, UniProt P10242 275-327, looked up) PAAAAIQRHYNDEDPEKEKRIKELELLLMSTENELKAQQVLPTQNHTCSYPGW"
820 ± 50 nM,-11.38 ± 0.11 kcal/mol,"c-Myb TAD L300V (domain or fragment, human, UniProt P10242 275-327, looked up) PAAAAIQRHYNDEDPEKEKRIKELEVLLMSTENELKGQQVLPTQNHTCSYPGW"
630 ± 20 nM,-11.22 ± 0.05 kcal/mol,"c-Myb TAD E292D (domain or fragment, human, UniProt P10242 275-327, looked up) PAAAAIQRHYNDEDPEKDKRIKELELLLMSTENELKGQQVLPTQNHTCSYPGW"
290000 ± 101000 nM,-1.34 ± 0.29 kcal/mol,"c-Myb TAD L300P (domain or fragment, human, UniProt P10242 275-327, looked up) PAAAAIQRHYNDEDPEKEKRIKELEPLLMSTENELKGQQVLPTQNHTCSYPGW"
3450 ± 500 nM,-7.35 ± 0.97 kcal/mol,"c-Myb TAD S304P (domain or fragment, human, UniProt P10242 275-327, looked up) PAAAAIQRHYNDEDPEKEKRIKELELLLMPTENELKGQQVLPTQNHTCSYPGW"
670 ± 80 nM,-9.26 ± 0.39 kcal/mol,"c-Myb TAD L300A (domain or fragment, human, UniProt P10242 275-327, looked up) PAAAAIQRHYNDEDPEKEKRIKELEALLMSTENELKGQQVLPTQNHTCSYPGW"

# From PMC6082395 (Journal of molecular biology, 2018)
